Experimental data published in IntAct's records for PubMed 16968782.

B1: Nephrin (Homo sapiens), O60500-1 (parent)
chain: MALGTTLRASLLLLGLLTEGLAQLAIPASVPRGFWALPENLTVVEGASVELRCGVSTPGSAVQWAKDGLLLGPDPRIPGFPRYRLEGDPARGEFHLHIEACDLSDDAEYECQVGRSEMGPELVSPRVILSILVPPKLLLLTPEAGTMVTWVAGQEYVVNCVSGDAKPAPDITILLSGQTISDISANVNEGSQQKLFTVEATARVTPRSSDNRQLLVCEASSPALEAPIKASFTVNVLFPPGPPVIEWPGLDEGHVRAGQSLELPCVARGGNPLATLQWLKNGQPVSTAWGTEHTQAVARSVLVMTVRPEDHGAQLSCEAHNSVSAGTQEHGITLQVTFPPSAIIILGSASQTENKNVTLSCVSKSSRPRVLLRWWLGWRQLLPMEETVMDGLHGGHISMSNLTFLARREDNGLTLTCEAFSEAFTKETFKKSLILNVKYPAQKLWIEGPPEGQKLRAGTRVRLVCLAIGGNPEPSLMWYKDSRTVTESRLPQESRRVHLGSVEKSGSTFSRELVLVTGPSDNQAKFTCKAGQLSASTQLAVQFPPTNVTILANASALRPGDALNLTCVSVSSNPPVNLSWDKEGERLEGVAAPPRRAPFKGSAAARSVLLQVSSRDHGQRVTCRAHSAELRETVSSFYRLNVLYRPEFLGEQVLVVTAVEQGEALLPVSVSANPAPEAFNWTFRGYRLSPAGGPRHRILSSGALHLWNVTRADDGLYQLHCQNSEGTAEARLRLDVHYAPTIRALQDPTEVNVGGSVDIVCTVDANPILPGMFNWERLGEDEEDQSLDDMEKISRGPTGRLRIHHAKLAQAGAYQCIVDNGVAPPARRLLRLVVRFAPQVEHPTPLTKVAAAGDSTSSATLHCRARGVPNIVFTWTKNGVPLDLQDPRYTEHTYHQGGVHSSLLTIANVSAAQDYALFTCTATNALGSDQTNIQLVSISRPDPPSGLKVVSLTPHSVGLEWKPGFDGGLPQRFCIRYEALGTPGFHYVDVVPPQATTFTLTGLQPSTRYRVWLLASNALGDSGLADKGTQLPITTPGLHQPSGEPEDQLPTEPPSGPSGLPLLPVLFALGGLLLLSNASCVGGVLWQRRLRRLAEGISEKTEAGSEEDRVRNEYEESQWTGERDTQSSTVSTTEAEPYYRSLRDFSPQLPPTQEEVSYSRGFTGEDEDMAFPGHLYDEVERTYPPSGAWGPLYDEVQMGPWDLHWPEDTYQDPRGIYDQVAGDLDTLEPDSLPFELRGHLV
B2: Nephrin (Homo sapiens), O60500-1 (parent)
chain: B1 chain
partner: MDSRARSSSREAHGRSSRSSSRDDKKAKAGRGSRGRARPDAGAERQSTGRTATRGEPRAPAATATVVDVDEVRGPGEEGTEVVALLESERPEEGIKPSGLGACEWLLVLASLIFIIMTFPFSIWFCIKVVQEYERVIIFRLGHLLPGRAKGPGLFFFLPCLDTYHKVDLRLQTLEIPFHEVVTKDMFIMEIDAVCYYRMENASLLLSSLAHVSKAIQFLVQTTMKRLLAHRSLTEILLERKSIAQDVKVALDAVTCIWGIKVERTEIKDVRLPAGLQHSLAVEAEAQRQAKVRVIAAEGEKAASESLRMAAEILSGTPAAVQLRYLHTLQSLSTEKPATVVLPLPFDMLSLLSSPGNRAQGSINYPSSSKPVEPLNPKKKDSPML

Variants of: B1
Details: with arrb2_human ARRB2, P32121
arrb2_human ARRB2, P32121, sequence (P32121 whole entry): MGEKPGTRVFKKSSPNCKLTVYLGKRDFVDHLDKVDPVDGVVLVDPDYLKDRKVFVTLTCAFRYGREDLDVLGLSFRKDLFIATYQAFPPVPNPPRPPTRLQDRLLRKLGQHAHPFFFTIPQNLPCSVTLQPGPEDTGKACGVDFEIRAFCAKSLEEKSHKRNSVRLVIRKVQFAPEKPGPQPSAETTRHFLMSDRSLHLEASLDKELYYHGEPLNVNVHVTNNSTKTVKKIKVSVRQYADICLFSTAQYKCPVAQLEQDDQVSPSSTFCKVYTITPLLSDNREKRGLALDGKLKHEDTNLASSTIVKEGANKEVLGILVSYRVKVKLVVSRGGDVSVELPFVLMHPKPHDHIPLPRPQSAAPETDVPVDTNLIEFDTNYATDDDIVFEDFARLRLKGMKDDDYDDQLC

Variant	effect of a mutation on the interaction
Y1193A	decreasing interaction strength

Variants of: B2
Details: with podo_mouse Nphs2, Q91X05

Variant	effect of a mutation on the interaction
Y1193F	disrupting interaction strength
